In data set [1] the test system is Androgen receptor (full length) (Homo sapiens). As to the kind of experiment: cell_activity. Particulars: HepG2 luciferase reporter, testosterone.
The test system of data set [2] is Glucocorticoid receptor (Rattus norvegicus). As to the kind of experiment: cell_activity. Particulars: HepG2 luciferase reporter, dexamethasone. (Reporter assays use an easily measured gene product as a stand-in for the process of interest.)
The target in data set [3] is T1, Androgen receptor DNA-binding domain (Homo sapiens, UniProt P10275 P10275:560-632). Nature of the data set: EMSA; band weaker than SRE; diminished by excess cold SRE. The note with it: tags: GST fusion (pGEX 4T-1 hAR2, E. coli BL21); label: 32P. The text has this:
(§1) In order to more directly test whether the AR bound to sequences with ARE1 and ARE2, binding of a GST-tagged version of recombinant AR DNA-binding domain to radiolabeled probes was examined using electrophoretic mobility shift assays.

Data set [4] deals with T1, Androgen receptor DNA-binding domain. As to the kind of experiment: EMSA; band consistently weaker than SRE; greatly diminished by excess cold SRE. Particulars: tags: GST fusion (pGEX 4T-1 hAR2, E. coli BL21); label: 32P.
Excerpt: as §1

The target is the same in data set [5]. Nature of the data set: EMSA; strong band, greatly diminished by excess unlabeled probe. Particulars: tags: GST fusion (pGEX 4T-1 hAR2, E. coli BL21); label: 32P.
Excerpt: as §1

The values below come from US20060166324, “Screening tools for discovery of novel anabolic agents” (USA as represented by the Dept. of Veterans Affairs, published 2006).

T1 sequence (P10275 560-632, one chain of several): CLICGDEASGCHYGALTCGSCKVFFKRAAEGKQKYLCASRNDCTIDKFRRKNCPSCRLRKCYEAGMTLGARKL

As for “pGL3-22 IGF-1 promoter insert -1508 to -1402 (ARE1)”, the values for the activity (fold induction) in data set [1] and in data set [2] were over 5 and under 2, respectively.

Consider “pGL3-32 IGF-1 promoter insert -1429 to -1250 (ARE1 and ARE2)”, for which the results for the activity (fold induction) in data set [1] (25-fold plateau in FIG. 15) and in data set [2] were 30 and 5, respectively.

As for “pGL3-13a IGF-1 promoter insert -1370 to -1250 (ARE2)”, the figures for the activity (fold induction) in data set [1] and in data set [2] were over 20 and 5, respectively.

B1: IGF-1 ARE1 probe (dsDNA)
DNA 1: GACTTGACCATATCTTATTCCTCTTTG
DNA 2: CAAAGAGGAATAAGATATGGTCAAGTC
In the case of B1, the binding result in data set [3] is given as “binds”.

B2: IGF-1 ARE2 probe (dsDNA)
DNA 1: TTGTAGTTGGGCACATAGTAGAGCTCA
DNA 2: TGAGCTCTACTATGTGCCCAACTACAA
In the case of B2, the binding result in data set [4] was “binds”.

B3: consensus SRE probe (dsDNA)
DNA 1: ATGCATTGGGTACATCTTGTTCACATA
DNA 2: TATGTGAACAAGATGTACCCAATGCAT
On to B3, for which, in data set [5], the binding result was “binds”.
